Source: paper PMC10397247

Columns and labels:
Assay in all cases: two-hybrid library CCmax;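 note: natural log of median RNA to DNA barcode read ratio; higher means stronger binding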
4H2883-AA = biological target: T1, 4H2883-AA; conditions: mean of both orientations
T1 chain: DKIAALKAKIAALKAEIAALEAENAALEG

4H2165-AA = biological target: T2, 4H2165-AA; conditions: mean of both orientations
T2 chain: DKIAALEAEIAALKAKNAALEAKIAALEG

4H1867-AA = biological target: T3, 4H1867-AA; conditions: mean of both orientations
T3 chain: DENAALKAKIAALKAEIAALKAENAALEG

4H780-AA = biological target: T4, 4H780-AA; conditions: mean of both orientations
T4 chain: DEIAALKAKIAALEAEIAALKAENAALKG

4H678-AA = biological target: T5, 4H678-AA
T5 chain: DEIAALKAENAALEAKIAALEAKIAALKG

4H1636-AA = biological target: T6, 4H1636-AA; conditions: mean of both orientations
T6 chain: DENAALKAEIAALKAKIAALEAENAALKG

4H906-AA = biological target: T7, 4H906-AA; conditions: mean of both orientations
T7 chain: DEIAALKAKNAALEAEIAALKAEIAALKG

4H2837-AA = biological target: T8, 4H2837-AA; conditions: mean of both orientations
T8 chain: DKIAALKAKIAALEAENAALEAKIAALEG

4H605-AA = biological target: T9, 4H605-AA; conditions: mean of both orientations
T9 chain: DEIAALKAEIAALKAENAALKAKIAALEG

4H48-AA = biological target: T10, 4H48-AA; conditions: mean of both orientations
T10 chain: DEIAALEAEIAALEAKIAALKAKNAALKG

4H1401-AA = biological target: T11, 4H1401-AA; conditions: mean of both orientations
T11 chain: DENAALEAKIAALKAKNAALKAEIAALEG

4H3112-AA = biological target: T12, 4H3112-AA; conditions: mean of both orientations
T12 chain: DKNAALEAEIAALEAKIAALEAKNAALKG

4H2729-AA = biological target: T13, 4H2729-AA; conditions: mean of both orientations
T13 chain: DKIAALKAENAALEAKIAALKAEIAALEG

4H2944-AA = biological target: T14, 4H2944-AA; conditions: mean of both orientations
T14 chain: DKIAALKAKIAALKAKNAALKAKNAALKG

4H717-AA = biological target: T15, 4H717-AA; conditions: mean of both orientations
T15 chain: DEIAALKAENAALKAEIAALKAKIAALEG

4H2949-AA = biological target: T16, 4H2949-AA; conditions: mean of both orientations
T16 chain: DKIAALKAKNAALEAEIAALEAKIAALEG

4H3921-AA = biological target: T17, 4H3921-AA; conditions: mean of both orientations
T17 chain: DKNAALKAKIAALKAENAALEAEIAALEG

4H1552-AA = biological target: T18, 4H1552-AA; conditions: mean of both orientations
T18 chain: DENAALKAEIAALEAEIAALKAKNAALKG

4H3343-AA = biological target: T19, 4H3343-AA; conditions: mean of both orientations
T19 chain: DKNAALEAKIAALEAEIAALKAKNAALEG

4H2642-AA = biological target: T20, 4H2642-AA; conditions: mean of both orientations
T20 chain: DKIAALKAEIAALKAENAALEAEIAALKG

4H2575-AA = biological target: T21, 4H2575-AA; conditions: mean of both orientations
T21 chain: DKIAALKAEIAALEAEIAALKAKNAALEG

Q7-AA = biological target: T22, Q7-AA; conditions: mean of both orientations
T22 chain: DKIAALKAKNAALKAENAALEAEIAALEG

4H317-AA = biological target: T23, 4H317-AA; conditions: mean of both orientations
T23 chain: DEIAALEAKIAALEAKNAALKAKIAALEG

4H335-AA = biological target: T24, 4H335-AA; conditions: mean of both orientations
T24 chain: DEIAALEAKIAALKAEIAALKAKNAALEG

4H2190-AA = biological target: T25, 4H2190-AA; conditions: mean of both orientations
T25 chain: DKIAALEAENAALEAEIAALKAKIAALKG

4H2151-AA = biological target: T26, 4H2151-AA; conditions: mean of both orientations
T26 chain: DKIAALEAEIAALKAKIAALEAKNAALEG

4H794-AA = biological target: T27, 4H794-AA; conditions: mean of both orientations
T27 chain: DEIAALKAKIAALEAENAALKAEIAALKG

4H2078-AA = biological target: T28, 4H2078-AA; conditions: mean of both orientations
T28 chain: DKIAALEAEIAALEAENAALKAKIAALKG

4H1513-AA = biological target: T29, 4H1513-AA; conditions: mean of both orientations
T29 chain: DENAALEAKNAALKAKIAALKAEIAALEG

4H429-AA = biological target: T30, 4H429-AA; conditions: mean of both orientations
T30 chain: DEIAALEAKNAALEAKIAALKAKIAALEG

4H3655-AA = biological target: T31, 4H3655-AA; conditions: mean of both orientations
T31 chain: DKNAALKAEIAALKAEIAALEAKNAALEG

4H234-AA = biological target: T32, 4H234-AA; conditions: mean of both orientations
T32 chain: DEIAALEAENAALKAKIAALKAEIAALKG

4H2354-AA = biological target: T33, 4H2354-AA; conditions: mean of both orientations
T33 chain: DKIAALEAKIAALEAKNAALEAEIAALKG

4H3844-AA = biological target: T34, 4H3844-AA
T34 chain: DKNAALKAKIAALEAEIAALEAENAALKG

4H1352-AA = biological target: T35, 4H1352-AA
T35 chain: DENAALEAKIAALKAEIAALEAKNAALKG

4H3627-AA = biological target: T36, 4H3627-AA; conditions: mean of both orientations
T36 chain: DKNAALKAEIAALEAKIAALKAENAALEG

Q3-AA = biological target: T37, Q3-AA; conditions: mean of both orientations
T37 chain: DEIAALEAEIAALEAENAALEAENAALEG

4H2466-AA = biological target: T38, 4H2466-AA; conditions: mean of both orientations
T38 chain: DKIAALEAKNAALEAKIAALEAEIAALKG

4H3718-AA = biological target: T39, 4H3718-AA; conditions: mean of both orientations
T39 chain: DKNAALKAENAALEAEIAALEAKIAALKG

4H2393-AA = biological target: T40, 4H2393-AA; conditions: mean of both orientations
T40 chain: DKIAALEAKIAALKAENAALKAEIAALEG

4H2754-AA = biological target: T41, 4H2754-AA; conditions: mean of both orientations
T41 chain: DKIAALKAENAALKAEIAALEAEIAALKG

Q8-AA = biological target: T42, Q8-AA; conditions: mean of both orientations
T42 chain: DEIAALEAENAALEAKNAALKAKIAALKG

4H3427-AA = biological target: T43, 4H3427-AA; conditions: mean of both orientations
T43 chain: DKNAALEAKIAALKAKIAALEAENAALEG

4H454-AA = biological target: T44, 4H454-AA; conditions: mean of both orientations
T44 chain: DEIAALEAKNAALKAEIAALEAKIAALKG

4H3606-AA = biological target: T45, 4H3606-AA; conditions: mean of both orientations
T45 chain: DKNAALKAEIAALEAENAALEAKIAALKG

4H881-AA = biological target: T46, 4H881-AA; conditions: mean of both orientations
T46 chain: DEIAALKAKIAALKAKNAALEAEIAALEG

4H2277-AA = biological target: T47, 4H2277-AA; conditions: mean of both orientations
T47 chain: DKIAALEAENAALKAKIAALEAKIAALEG

4H342-AA = biological target: T48, 4H342-AA; conditions: mean of both orientations
T48 chain: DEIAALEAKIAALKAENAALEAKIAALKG

4H2505-AA = biological target: T49, 4H2505-AA; conditions: mean of both orientations
T49 chain: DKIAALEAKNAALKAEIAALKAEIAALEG

4H2617-AA = biological target: T50, 4H2617-AA; conditions: mean of both orientations
T50 chain: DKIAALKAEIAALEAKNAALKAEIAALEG

4H566-AA = biological target: T51, 4H566-AA; conditions: mean of both orientations
T51 chain: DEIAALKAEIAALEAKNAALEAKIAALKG

4H993-AA = biological target: T52, 4H993-AA; conditions: mean of both orientations
T52 chain: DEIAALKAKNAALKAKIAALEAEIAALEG

B1: 4H1352-AA (peptide)
chain: DENAALEAKIAALKAEIAALEAKNAALKG
Which interaction score (4H2883-AA) does the source give for B1 here?
Its interaction score is 0.183.

And the interaction score (4H2165-AA)?
The interaction score was -1.51.

What about the interaction score (4H1867-AA) of the same binder?
The interaction score was 0.645.

What about the interaction score (4H780-AA) of the same binder?
The interaction score was -1.6.

What about the interaction score (4H678-AA) of the same binder?
The interaction score was -0.653.

What about the interaction score (4H1636-AA) of the same binder?
The interaction score was -1.13.

And the interaction score (4H906-AA)?
Its interaction score is -1.39.

What about the interaction score (4H2837-AA) of the same binder?
The interaction score was -0.514.

And the interaction score (4H605-AA)?
The interaction score was -1.5.

And the interaction score (4H48-AA)?
The interaction score was -0.096.

And the interaction score (4H1401-AA)?
Its interaction score is -1.64.

And the interaction score (4H3112-AA)?
The interaction score was 1.11.

And the interaction score (4H2729-AA)?
Its interaction score is 0.0997.

And the interaction score (4H2944-AA)?
The interaction score was -0.752.

And the interaction score (4H717-AA)?
Its interaction score is -1.46.

What about the interaction score (4H2949-AA) of the same binder?
The interaction score was -0.999.

And the interaction score (4H3921-AA)?
The interaction score was -1.28.

What about the interaction score (4H1552-AA) of the same binder?
The interaction score was 1.47.

What about the interaction score (4H3343-AA) of the same binder?
Its interaction score is -0.188.

And the interaction score (4H2642-AA)?
The interaction score was -1.13.

What about the interaction score (4H2575-AA) of the same binder?
The interaction score was 1.45.

What about the interaction score (Q7-AA) of the same binder?
Its interaction score is -1.38.

What about the interaction score (4H317-AA) of the same binder?
Its interaction score is -0.919.

What about the interaction score (4H335-AA) of the same binder?
The interaction score was 0.334.

And the interaction score (4H2190-AA)?
Its interaction score is -1.16.

What about the interaction score (4H2151-AA) of the same binder?
Its interaction score is -0.65.

And the interaction score (4H794-AA)?
The interaction score was -1.64.

What about the interaction score (4H2078-AA) of the same binder?
The interaction score was -1.18.

What about the interaction score (4H1513-AA) of the same binder?
Its interaction score is -0.469.

What about the interaction score (4H429-AA) of the same binder?
Its interaction score is -0.813.

What about the interaction score (4H3655-AA) of the same binder?
The interaction score was 0.863.

What about the interaction score (4H234-AA) of the same binder?
Its interaction score is -1.3.

What about the interaction score (4H2354-AA) of the same binder?
Its interaction score is -1.74.

And the interaction score (4H3844-AA)?
Its interaction score is 1.93.

And the interaction score (4H1352-AA)?
Its interaction score is 1.38.

And the interaction score (4H3627-AA)?
Its interaction score is 2.33.

What about the interaction score (Q3-AA) of the same binder?
Its interaction score is -0.583.

And the interaction score (4H2466-AA)?
The interaction score was -1.34.

And the interaction score (4H3718-AA)?
Its interaction score is 0.714.

And the interaction score (4H2393-AA)?
Its interaction score is -1.01.

And the interaction score (4H2754-AA)?
Its interaction score is -0.982.

What about the interaction score (Q8-AA) of the same binder?
The interaction score was -1.22.

What about the interaction score (4H3427-AA) of the same binder?
The interaction score was 0.842.

What about the interaction score (4H454-AA) of the same binder?
The interaction score was 1.39.

What about the interaction score (4H3606-AA) of the same binder?
Its interaction score is -0.743.

And the interaction score (4H881-AA)?
The interaction score was -0.885.

And the interaction score (4H2277-AA)?
Its interaction score is -1.27.

What about the interaction score (4H342-AA) of the same binder?
The interaction score was 1.49.

What about the interaction score (4H2505-AA) of the same binder?
Its interaction score is -0.788.

And the interaction score (4H2617-AA)?
Its interaction score is 0.197.

What about the interaction score (4H566-AA) of the same binder?
Its interaction score is -1.51.

And the interaction score (4H993-AA)?
Its interaction score is -0.427.
